B1: BB0238 (purified recombinant, wild type) (natural protein)
chain: QGSSSYIDKQKELAIFYYEVGQRYINVGKIKKGKLFQAKALKIYPDLKKGFDIKLAVKELDARIKDDNPKVVMLEDIKLEEIPGIVHEKIEINDFTNAPKIEYIAQRERSKNQDKIIKFQFGKFARALISRNFDLFDSVIADKVNVMGQFESKNDFISTLSSASSKADADELEYLSVDDYYDLKSLKISKSNDTSFAVNVNAKKNDVTKNFPFWKERQTLIFTTEDDNNWFLSSIN
notes: BB0238 of Borrelia burgdorferi; monomer-dimer mixture in solution; also called BB0238 WT; intact BB0238
B2: BB0323 (residues 22–242) (domain or fragment)
chain: KTPPESRESKNAKIAQPDNKNFQLRDIKDIKNELIRERGHLFYSKEFNEAERLEEAMKQSFSKKKAIEGNEIALKVLERYKTIIRETREKKEKTNYLKENIEKYLNDAEANEAYIWIPLEIDEVNNLYFEATRKYKNYDLDNALDMYSKAFNRAQQAAKNAKEAKALKETDERMYKQLKALEAASNLPIYSNNKLIKPSPWNGRAFIKERNSHLNLLNTNK
notes: BB0323 of Borrelia burgdorferi, residues 22-242; also called BB0323 N2; BB0323^22-242

Key:
[1] = target: B2; test: SEC; analytical SEC of ~1:1 mixtures: 10 uM BB0238-BB0323 on Superdex 200; ~9 uM BB0238^∆IM with 8 uM BB0323 22-242 on Superdex 75; 50 mM Tris-HCl pH 8.0, 0.15 M NaCl, 0.5 mM EDTA, 4 °C; details: both partners purified
[2] = target: the molecule itself; test: SEC; analytical SEC of single proteins on Superdex 75 (10/300), 50 mM Tris-HCl pH 8.0, 0.15 M NaCl, 0.5 mM EDTA, 4 °C; BB0238 9-44 uM, BB0238^∆IM 10-40 uM, BB0323 (22-242) 8 uM; monomer-dimer

| Binder | stoichiometry N [1] | stoichiometry N [2] |
| --- | --- | --- |
| B1 | 1 | 2 |
| B2 | – | 2 |

From paper PMC5462797, “A protein-protein interaction dictates Borrelial infectivity” (Scientific Reports, 2017)
